Assay results published in PMC3745222.

Target: full-length GST-Smad3 (UniProt P84022)
Assay: pull-down

Chain of UniProt P84022 (P84022 whole entry): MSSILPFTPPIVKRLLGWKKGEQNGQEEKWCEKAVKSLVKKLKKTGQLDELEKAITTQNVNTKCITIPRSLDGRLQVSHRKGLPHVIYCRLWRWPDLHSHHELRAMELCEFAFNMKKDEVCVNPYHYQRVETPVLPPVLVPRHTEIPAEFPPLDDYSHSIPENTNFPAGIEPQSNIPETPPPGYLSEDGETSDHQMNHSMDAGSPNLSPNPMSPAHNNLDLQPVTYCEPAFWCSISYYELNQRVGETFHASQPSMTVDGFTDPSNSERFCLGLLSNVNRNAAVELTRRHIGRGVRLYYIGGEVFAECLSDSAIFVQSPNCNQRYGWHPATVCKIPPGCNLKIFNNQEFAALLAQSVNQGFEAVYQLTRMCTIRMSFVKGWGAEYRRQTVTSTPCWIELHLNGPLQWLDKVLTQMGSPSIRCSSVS

## intracellular Notch1 (ICN1), the active form of Notch1 (domain or fragment)
  fold increase of binding in β2SP shRNA cells against control cells: 2 fold
